Substitutions are numbered along the chain they refer to.

These results are taken from US20220010021A1 (Sanofi, published 2022).

Test [1] has as its target cell surface receptor composed of FGFR1c and co-receptor beta-Klotho (KLB) (human, UniProt P11362 22-822; Q86Z14 1-1044). In words: cell-based or functional assay. On Mean E max, Luciferase reporter gene assay: reference of the scale not given here.
Another test concerns the target T1, human beta-Klotho (KLB) (human, UniProt Q86Z14 53-997).
T1 construct: Bought protein; also called human KLB; β-Klotho
T1 sequence (looked up): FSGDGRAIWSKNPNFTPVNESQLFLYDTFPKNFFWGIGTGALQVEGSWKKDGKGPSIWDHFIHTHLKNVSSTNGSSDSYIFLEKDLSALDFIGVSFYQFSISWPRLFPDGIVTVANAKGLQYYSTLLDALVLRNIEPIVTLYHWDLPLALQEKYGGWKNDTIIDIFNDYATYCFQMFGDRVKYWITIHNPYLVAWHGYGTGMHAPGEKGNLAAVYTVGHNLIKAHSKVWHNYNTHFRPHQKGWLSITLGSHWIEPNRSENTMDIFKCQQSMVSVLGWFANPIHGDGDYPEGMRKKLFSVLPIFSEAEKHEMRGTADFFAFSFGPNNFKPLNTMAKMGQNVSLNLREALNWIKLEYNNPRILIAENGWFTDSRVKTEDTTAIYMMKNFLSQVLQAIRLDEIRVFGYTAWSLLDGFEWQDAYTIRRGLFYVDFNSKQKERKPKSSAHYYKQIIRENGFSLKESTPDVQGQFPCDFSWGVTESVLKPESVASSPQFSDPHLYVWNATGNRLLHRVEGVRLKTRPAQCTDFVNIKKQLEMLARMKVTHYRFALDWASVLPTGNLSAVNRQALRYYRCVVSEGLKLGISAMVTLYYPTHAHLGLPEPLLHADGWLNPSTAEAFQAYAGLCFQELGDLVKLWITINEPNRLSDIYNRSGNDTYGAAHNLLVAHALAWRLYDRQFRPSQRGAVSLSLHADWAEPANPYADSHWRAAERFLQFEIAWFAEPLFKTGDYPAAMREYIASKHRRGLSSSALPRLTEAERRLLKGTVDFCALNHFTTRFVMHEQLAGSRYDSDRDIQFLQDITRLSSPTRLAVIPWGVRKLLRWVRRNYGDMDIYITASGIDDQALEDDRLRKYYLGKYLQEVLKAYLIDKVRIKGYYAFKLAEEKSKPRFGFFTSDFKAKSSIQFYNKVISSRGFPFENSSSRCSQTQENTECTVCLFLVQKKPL
In words: BLI off-rate screening (Octet), crude supernatant.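 Further: supernatants tested at 25 µg/mL, dissociation from biosensors recorded in D-PBS with 0.1% BSA over 1800 s.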 For orientation: In BLI a coated tip is dipped into the sample, and binding shifts an interference pattern.

cell surface receptor composed of FGFR1c and co-receptor beta-Klotho (KLB), sequence (P11362 22-822, chain 1 of 2): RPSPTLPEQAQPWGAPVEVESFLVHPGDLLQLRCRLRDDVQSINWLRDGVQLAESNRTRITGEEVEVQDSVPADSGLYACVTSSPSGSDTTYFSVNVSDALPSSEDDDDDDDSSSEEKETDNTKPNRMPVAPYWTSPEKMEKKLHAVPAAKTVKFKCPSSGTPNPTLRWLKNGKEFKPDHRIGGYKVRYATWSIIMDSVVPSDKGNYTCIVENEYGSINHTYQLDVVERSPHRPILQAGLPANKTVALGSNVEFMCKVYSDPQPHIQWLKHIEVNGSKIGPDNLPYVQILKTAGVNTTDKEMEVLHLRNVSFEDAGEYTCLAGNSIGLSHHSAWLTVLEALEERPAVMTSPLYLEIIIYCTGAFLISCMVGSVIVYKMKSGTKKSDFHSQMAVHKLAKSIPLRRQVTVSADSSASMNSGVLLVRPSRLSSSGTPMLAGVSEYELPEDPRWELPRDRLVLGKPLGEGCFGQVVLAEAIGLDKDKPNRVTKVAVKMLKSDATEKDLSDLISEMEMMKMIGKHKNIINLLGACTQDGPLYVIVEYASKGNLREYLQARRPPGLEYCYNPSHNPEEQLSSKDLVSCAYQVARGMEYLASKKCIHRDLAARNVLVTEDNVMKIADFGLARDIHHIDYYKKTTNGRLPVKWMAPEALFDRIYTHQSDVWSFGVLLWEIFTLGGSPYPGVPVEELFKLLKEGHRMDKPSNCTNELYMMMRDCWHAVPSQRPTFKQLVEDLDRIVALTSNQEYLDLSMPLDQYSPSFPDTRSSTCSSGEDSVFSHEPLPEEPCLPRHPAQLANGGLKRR
cell surface receptor composed of FGFR1c and co-receptor beta-Klotho (KLB), sequence (Q86Z14 whole entry, chain 2 of 2): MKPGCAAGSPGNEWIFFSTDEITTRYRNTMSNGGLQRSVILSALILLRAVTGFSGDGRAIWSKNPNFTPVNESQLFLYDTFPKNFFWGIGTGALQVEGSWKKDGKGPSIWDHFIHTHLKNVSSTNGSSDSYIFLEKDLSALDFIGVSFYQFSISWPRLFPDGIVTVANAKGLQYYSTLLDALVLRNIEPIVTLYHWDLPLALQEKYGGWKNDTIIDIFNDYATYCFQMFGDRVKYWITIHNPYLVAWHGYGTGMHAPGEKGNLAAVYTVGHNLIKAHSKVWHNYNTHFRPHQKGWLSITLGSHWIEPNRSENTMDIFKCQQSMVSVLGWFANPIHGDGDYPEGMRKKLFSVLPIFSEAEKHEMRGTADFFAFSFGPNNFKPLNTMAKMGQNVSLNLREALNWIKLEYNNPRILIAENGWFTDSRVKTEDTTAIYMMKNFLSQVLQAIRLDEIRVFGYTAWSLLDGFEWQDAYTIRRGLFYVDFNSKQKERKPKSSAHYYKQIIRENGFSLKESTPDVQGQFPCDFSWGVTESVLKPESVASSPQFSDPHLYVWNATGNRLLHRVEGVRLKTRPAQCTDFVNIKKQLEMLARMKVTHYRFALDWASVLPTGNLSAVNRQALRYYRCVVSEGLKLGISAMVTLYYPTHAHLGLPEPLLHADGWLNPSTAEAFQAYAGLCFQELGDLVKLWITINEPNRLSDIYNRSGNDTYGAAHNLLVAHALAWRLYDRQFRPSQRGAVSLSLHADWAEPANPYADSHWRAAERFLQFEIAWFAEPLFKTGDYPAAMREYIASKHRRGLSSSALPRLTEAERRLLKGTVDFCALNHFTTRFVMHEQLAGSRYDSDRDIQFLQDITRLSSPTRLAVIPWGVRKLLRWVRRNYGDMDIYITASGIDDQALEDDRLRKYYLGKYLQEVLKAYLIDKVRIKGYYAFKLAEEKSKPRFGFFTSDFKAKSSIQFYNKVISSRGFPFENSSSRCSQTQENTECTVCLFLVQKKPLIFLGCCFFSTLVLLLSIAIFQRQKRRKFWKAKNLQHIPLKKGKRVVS

B1: 16H7 light chain variant D95A (antibody, IgG4, V domains shown)
VH: not shown
VL: SYVLTQPPSVSVAPGQTARITCGGNNIGSESVHWYQQKPGQAPVLVVYDDSDRPSGIPERFSGSNSGNTATLTISRVEAGDEADYYCQVWDGNSAHVVFGGGTKLTVLG
notes: IgG4 backbone
Usually koff stands for a measure of how fast the partners let go of each other. Low values mean a long-lived complex, high ones a short-lived complex. As for B1, in test [1], the “Mean E max, Luciferase reporter gene assay” value (“Mean E max” for short) worked out at 12%. The same molecule gave a koff with human beta-Klotho (KLB) of 0.0002 s⁻¹.

B2: 16H7 light chain variant H96D (antibody, IgG4, V domains shown)
VH: not shown
VL: B1 VL with A95D, H96D
notes: IgG4 backbone
On to B2, for which, in test [1], the “Mean E max” value was 100% and the “Mean EC50, Luciferase reporter gene assay” value (shortened to “Mean EC50”) is 0.111 nM. This molecule had a koff in the test with human beta-Klotho (KLB) of 2.2e-05 s⁻¹.

B3: 16H7 light chain variant H96Q (antibody, IgG4, V domains shown)
VH: not shown
VL: B1 VL with A95D, H96Q
notes: IgG4 backbone
On to B3, for which, in test [1], the “Mean E max” value was 104% and the “Mean EC50” value is 0.106 nM. For the same molecule, the koff with human beta-Klotho (KLB) came out at 5e-05 s⁻¹.

B4: 16H7 light chain variant H33A (antibody, IgG4, V domains shown)
VH: not shown
VL: B1 VL with H33A, A95D
notes: IgG4 backbone
Consider B4, for which, in test [1], the “Mean E max” value came out at 96% and the “Mean EC50” value came to 0.121 nM. The molecule also returned a koff with human beta-Klotho (KLB) of 0.00013 s⁻¹.

B5: 16H7 light chain variant H33V (antibody, IgG4, V domains shown)
VH: not shown
VL: B1 VL with H33V, A95D
notes: IgG4 backbone
Turning to B5, in test [1], the “Mean E max” value is 104% and the “Mean EC50” value came to 0.147 nM. The same molecule registered a koff with human beta-Klotho (KLB) of 0.00018 s⁻¹.

B6: 16H7 light chain variant H96N (antibody, IgG4, V domains shown)
VH: not shown
VL: B1 VL with A95D, H96N
notes: IgG4 backbone
In the case of B6, in test [1], the “Mean E max” value amounted to 112% and the “Mean EC50” value worked out at 0.143 nM. Moreover, the koff with human beta-Klotho (KLB) is 4.4e-05 s⁻¹.

B7: 16H7 light chain variant H33C (antibody, IgG4, V domains shown)
VH: not shown
VL: B1 VL with H33C, A95D
notes: IgG4 backbone
In the case of B7, in test [1], the “Mean E max” value was found to be 108% and the “Mean EC50” value was determined as 0.123 nM. Also, the koff with human beta-Klotho (KLB) worked out at 6.8e-05 s⁻¹.

B8: 16H7 light chain variant D95M (antibody, IgG4, V domains shown)
VH: not shown
VL: B1 VL with A95M
notes: IgG4 backbone
Regarding B8, the “Mean E max” value in test [1] came out at 8%. For the same molecule, in the test with human beta-Klotho (KLB), the koff came out at 1.4e-05 s⁻¹.

B9: 16H7 light chain variant H33S (antibody, IgG4, V domains shown)
VH: not shown
VL: B1 VL with H33S, A95D
notes: IgG4 backbone
Regarding B9, the “Mean E max” value in test [1] amounted to 103%. In the test with human beta-Klotho (KLB), the koff was 4.6e-06 s⁻¹.

B10: 16H7 light chain variant H33F (antibody, IgG4, V domains shown)
VH: not shown
VL: B1 VL with H33F, A95D
notes: IgG4 backbone
Regarding B10, in test [1], the “Mean E max” value worked out at 113% and the “Mean EC50” value was determined as 0.122 nM. Also, the koff with human beta-Klotho (KLB) was determined as 0.0001 s⁻¹.

B11: 16H7 light chain variant D95I (antibody, IgG4, V domains shown)
VH: not shown
VL: B1 VL with A95I
notes: IgG4 backbone
B11: the “Mean E max” value in test [1] stood at 4%. The koff with human beta-Klotho (KLB) was found to be 0.00016 s⁻¹.

B12: 16H7 light chain variant H33Y (antibody, IgG4, V domains shown)
VH: not shown
VL: B1 VL with H33Y, A95D
notes: IgG4 backbone
For B12, in test [1], the “Mean E max” value is 98% and the “Mean EC50” value is 0.12 nM. In the test with human beta-Klotho (KLB), this molecule returned a koff of 7.5e-05 s⁻¹.

B13: 16H7 light chain variant H33N (antibody, IgG4, V domains shown)
VH: not shown
VL: B1 VL with H33N, A95D
notes: IgG4 backbone
In the case of B13, in test [1], the “Mean E max” value was 113% and the “Mean EC50” value came out at 0.165 nM. The koff with human beta-Klotho (KLB) was 0.00011 s⁻¹.

B14: 16H7 light chain variant D95Y (antibody, IgG4, V domains shown)
VH: not shown
VL: B1 VL with A95Y
notes: IgG4 backbone
On to B14, for which, in test [1], the “Mean E max” value is 4%. The same molecule showed a koff with human beta-Klotho (KLB) of 0.00013 s⁻¹.

B15: 16H7 light chain variant H33G (antibody, IgG4, V domains shown)
VH: not shown
VL: B1 VL with H33G, A95D
notes: IgG4 backbone
For B15, in test [1], the “Mean E max” value was 102% and the “Mean EC50” value worked out at 0.12 nM. In the test with human beta-Klotho (KLB), this molecule yielded a koff of 9.6e-05 s⁻¹.

B16: 16H7 light chain variant H96G (antibody, IgG4, V domains shown)
VH: not shown
VL: B1 VL with A95D, H96G
notes: IgG4 backbone
For the molecule B16, in test [1], the “Mean E max” value was 95% and the “Mean EC50” value was determined as 0.13 nM. In the test with human beta-Klotho (KLB), this molecule showed a koff of 0.00015 s⁻¹.

B17: 16H7 light chain variant H96R (antibody, IgG4, V domains shown)
VH: not shown
VL: B1 VL with A95D, H96R
notes: IgG4 backbone
B17: in test [1], the “Mean E max” value turned out to be 102% and the “Mean EC50” value is 0.095 nM. For the same molecule, the koff in the test with human beta-Klotho (KLB) is 0.00014 s⁻¹.

B18: 16H7 light chain variant H33M (antibody, IgG4, V domains shown)
VH: not shown
VL: B1 VL with H33M, A95D
notes: IgG4 backbone
Turning to B18, in test [1], the “Mean E max” value amounted to 102% and the “Mean EC50” value is 0.107 nM. Besides, in the test with human beta-Klotho (KLB), the koff is 5.2e-05 s⁻¹.

B19: 16H7 light chain variant H96L (antibody, IgG4, V domains shown)
VH: not shown
VL: B1 VL with A95D, H96L
notes: IgG4 backbone
As for B19, in test [1], the “Mean E max” value was determined as 98% and the “Mean EC50” value was 0.176 nM. The koff with human beta-Klotho (KLB) is 0.00013 s⁻¹.

B20: 16H7 light chain variant H33D (antibody, IgG4, V domains shown)
VH: not shown
VL: B1 VL with H33D, A95D
notes: IgG4 backbone
Consider B20, for which, in test [1], the “Mean E max” value was found to be 99% and the “Mean EC50” value is 0.166 nM. The koff with human beta-Klotho (KLB) was found to be 6.8e-05 s⁻¹.

B21: 16H7 light chain variant H33L (antibody, IgG4, V domains shown)
VH: not shown
VL: B1 VL with H33L, A95D
notes: IgG4 backbone
For B21, in test [1], the “Mean E max” value amounted to 114% and the “Mean EC50” value was 0.115 nM. This molecule also showed a koff with human beta-Klotho (KLB) of 5.5e-05 s⁻¹.

B22: 16H7 light chain variant H33T (antibody, IgG4, V domains shown)
VH: not shown
VL: B1 VL with H33T, A95D
notes: IgG4 backbone
With B22, in test [1], the “Mean E max” value is 99% and the “Mean EC50” value was determined as 0.114 nM. In addition, the koff with human beta-Klotho (KLB) was 0.00014 s⁻¹.

B23: 16H7 light chain variant H96T (antibody, IgG4, V domains shown)
VH: not shown
VL: B1 VL with A95D, H96T
notes: IgG4 backbone
In the case of B23, in test [1], the “Mean E max” value stood at 110% and the “Mean EC50” value turned out to be 0.11 nM. For the same molecule, the koff with human beta-Klotho (KLB) stood at 1.8e-05 s⁻¹.

B24: 16H7 light chain variant H33E (antibody, IgG4, V domains shown)
VH: not shown
VL: B1 VL with H33E, A95D
notes: IgG4 backbone
Regarding B24, in test [1], the “Mean E max” value turned out to be 100% and the “Mean EC50” value is 0.121 nM. In addition, the koff in the test with human beta-Klotho (KLB) is 3.6e-05 s⁻¹.

B25: 16H7 light chain variant H33I (antibody, IgG4, V domains shown)
VH: not shown
VL: B1 VL with H33I, A95D
notes: IgG4 backbone
Regarding B25, in test [1], the “Mean E max” value was determined as 104% and the “Mean EC50” value is 0.121 nM. For the same molecule, the koff in the test with human beta-Klotho (KLB) came out at 9.7e-05 s⁻¹.

B26: 16H7 light chain variant D95H (antibody, IgG4, V domains shown)
VH: not shown
VL: B1 VL with A95H
notes: IgG4 backbone
As for B26, in test [1], the “Mean E max” value was determined as 33% and the “Mean EC50” value came to 29.7 nM. The koff in the test with human beta-Klotho (KLB) worked out at 8.1e-06 s⁻¹.

B27: 16H7 light chain variant H96V (antibody, IgG4, V domains shown)
VH: not shown
VL: B1 VL with A95D, H96V
notes: IgG4 backbone
For the molecule B27, in test [1], the “Mean E max” value amounted to 91% and the “Mean EC50” value worked out at 0.13 nM. In the test with human beta-Klotho (KLB), this molecule yielded a koff of 4.1e-05 s⁻¹.

B28: 16H7 light chain variant H96K (antibody, IgG4, V domains shown)
VH: not shown
VL: B1 VL with A95D, H96K
notes: IgG4 backbone
With B28, in test [1], the “Mean E max” value is 98% and the “Mean EC50” value is 0.179 nM. The koff with human beta-Klotho (KLB) turned out to be 6.4e-05 s⁻¹.

B29: 16H7 light chain variant H96S (antibody, IgG4, V domains shown)
VH: not shown
VL: B1 VL with A95D, H96S
notes: IgG4 backbone
For B29, in test [1], the “Mean E max” value stood at 102% and the “Mean EC50” value worked out at 0.097 nM. Moreover, the dissociation rate constant (koff) with human beta-Klotho (KLB) is 3e-05 s⁻¹.

B30: 16H7 light chain variant H33Q (antibody, IgG4, V domains shown)
VH: not shown
VL: B1 VL with H33Q, A95D
notes: IgG4 backbone
For B30, in test [1], the “Mean E max” value was 101% and the “Mean EC50” value is 0.131 nM. This molecule also registered an off-rate (koff) with human beta-Klotho (KLB) of 4.4e-05 s⁻¹.

B31: 16H7 light chain variant H96E (antibody, IgG4, V domains shown)
VH: not shown
VL: B1 VL with A95D, H96E
notes: IgG4 backbone
Regarding B31, in test [1], the “Mean E max” value was 100% and the “Mean EC50” value was found to be 0.122 nM. In the test with human beta-Klotho (KLB), this molecule returned a koff of 1.1e-05 s⁻¹.
